Experimental data from US20130171147A1.

Biological target: rat prolactin receptor (PRLR) on Nb2 lymphoma cells (rat) (UniProt P05710)
Test: FACS on rat lymphoma cell line Nb2, IgG1

EC50 [nM]	Binder
0.3	HE06.642 (antibody, IgG1, V domains shown) VH: EVQLVESGGGLVQPGGSLRLSCAVSGFTFSSYGMSWVRQAPGKGLEWVATVSSGGTYTYYPDSVKGRFTISRDNSKNTLYLQMNSLRAEDTAVYYCARHRGNYYATYYYAMDYWGQGTLVTVSS VL: DIVLTQSPDSLAVSLGERATINCKASKSVSTSGYTYMHWYQQKPGQPPKLLIYLASNRESGVPDRFSGSGSGTDFTLTISPVQAEDVATYYCQHSGELPPSFGQGTKLEIKR
1.2	001-E06 (human IgG1) (antibody, V domains shown) VH: QVELLESGGGLVQPGGSLRLSCAASGFTFSSYWMSWVRQAPGKGLEWVSSVSDTGTDTHYADSVKGRFTISRDNSKNTLYLQMNSLRAEDTAVYYCAKTPLAYSSGWYYFDYWGQGTLVTVSS VL: DIVLTQPPSASGTPGQRVTISCSGSSSNIGSNTVNWYQQLPGTAPKLLIYRNYQRPSGVPDRFSGSKSGTSASLAISGLRSEDEADYYCQSYDSSLSGSVFGGGTKLTVLG
